Data on 5 substances can be found in publication PMC7262448.

For assay [1], the target named is human SNAP-GLP-1R (human) (UniProt P43220).
The target of a further assay is mouse GLP-1R (mouse) (UniProt O35659).
The next assay concerns the target rat GLP-1R (rat) (UniProt P32301).
For assay [2], the target named is human SNAP-GLP-1R (human) (UniProt P43220). In words: FRET or BRET. In general terms: In BRET a luciferase serves as donor, and the signal depends on an acceptor being close.
The next assay addresses human plasma proteins. In words: EScalate equilibrium shift assay; binding of peptide to the proteins of human or mouse plasma; percentage of peptide unbound, determined in duplicate.
Another assay has as its target mouse plasma proteins. Described as above.

Chain of human SNAP-GLP-1R (human) (P43220 24-463): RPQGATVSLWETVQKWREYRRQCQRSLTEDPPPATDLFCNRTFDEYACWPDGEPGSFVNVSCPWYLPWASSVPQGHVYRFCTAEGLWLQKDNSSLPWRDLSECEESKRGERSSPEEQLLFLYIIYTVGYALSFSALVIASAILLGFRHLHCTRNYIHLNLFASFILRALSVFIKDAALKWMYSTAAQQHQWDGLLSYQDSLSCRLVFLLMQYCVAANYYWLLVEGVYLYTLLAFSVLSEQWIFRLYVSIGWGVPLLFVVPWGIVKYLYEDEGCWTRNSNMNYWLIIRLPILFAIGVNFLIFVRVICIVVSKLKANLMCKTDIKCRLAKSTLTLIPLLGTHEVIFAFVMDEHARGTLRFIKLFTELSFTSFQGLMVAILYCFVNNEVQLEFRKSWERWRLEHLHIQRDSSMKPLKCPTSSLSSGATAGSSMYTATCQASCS
Chain of rat GLP-1R (rat) (P32301 22-463): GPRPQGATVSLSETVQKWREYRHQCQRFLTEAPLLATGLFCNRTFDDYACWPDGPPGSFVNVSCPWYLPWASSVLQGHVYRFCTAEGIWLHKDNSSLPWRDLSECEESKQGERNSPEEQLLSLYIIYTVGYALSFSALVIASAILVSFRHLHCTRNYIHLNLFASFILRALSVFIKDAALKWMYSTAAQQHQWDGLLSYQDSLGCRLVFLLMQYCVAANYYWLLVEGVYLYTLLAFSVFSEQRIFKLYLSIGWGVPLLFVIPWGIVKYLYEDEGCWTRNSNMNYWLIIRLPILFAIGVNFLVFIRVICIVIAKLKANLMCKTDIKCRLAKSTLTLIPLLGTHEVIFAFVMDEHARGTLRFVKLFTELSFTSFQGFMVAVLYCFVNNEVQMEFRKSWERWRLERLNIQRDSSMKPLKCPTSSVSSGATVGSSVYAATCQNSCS
Chain of mouse GLP-1R (mouse) (O35659 22-463): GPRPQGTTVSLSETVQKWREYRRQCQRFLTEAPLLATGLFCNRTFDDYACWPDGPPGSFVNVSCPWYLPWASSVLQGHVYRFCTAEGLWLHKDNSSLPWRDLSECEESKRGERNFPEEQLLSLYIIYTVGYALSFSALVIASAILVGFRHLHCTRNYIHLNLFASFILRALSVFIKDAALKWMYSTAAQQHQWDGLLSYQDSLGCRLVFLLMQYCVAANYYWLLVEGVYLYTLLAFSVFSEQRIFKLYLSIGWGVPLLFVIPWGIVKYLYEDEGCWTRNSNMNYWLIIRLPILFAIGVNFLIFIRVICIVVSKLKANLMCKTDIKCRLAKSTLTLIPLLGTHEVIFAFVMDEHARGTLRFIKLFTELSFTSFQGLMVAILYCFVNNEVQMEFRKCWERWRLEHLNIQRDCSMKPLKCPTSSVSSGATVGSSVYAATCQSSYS

D^3-exendin-4 (peptide): in assay [1], the cAMP (1% FBS), HEK293-SNAP-GLP-1R cells, Emax stood at 96 % max and the cAMP (1% FBS), HEK293-SNAP-GLP-1R cells, pEC50 is 10.6 pEC50 (M). Besides, in the assay with mouse GLP-1R (mouse), the cAMP, MIN6B1 cells (with IBMX), Emax was determined as 101 % max and the cAMP, MIN6B1 cells (with IBMX), pEC50 was 11 pEC50 (M). In addition, in the assay with rat GLP-1R (rat), the cAMP, INS-1 832/3 cells (with IBMX), Emax was 100 % max and the cAMP, INS-1 832/3 cells (with IBMX), pEC50 was 9 pEC50 (M). In addition, the pKd in assay [2] was 9.1 pKd (M).
As for F^1-exendin-4 (peptide), in assay [1], the cAMP (1% FBS), HEK293-SNAP-GLP-1R cells, Emax is 83 % max and the cAMP (1% FBS), HEK293-SNAP-GLP-1R cells, pEC50 was 9 pEC50 (M). Besides, in the assay with mouse GLP-1R (mouse), the cAMP, MIN6B1 cells (with IBMX), Emax came to 97 % max and the cAMP, MIN6B1 cells (with IBMX), pEC50 was 9.2 pEC50 (M). Also, in the assay with rat GLP-1R (rat), the cAMP, INS-1 832/3 cells (with IBMX), Emax is 97 % max and the cAMP, INS-1 832/3 cells (with IBMX), pEC50 was 8.4 pEC50 (M). In assay [2], the pKd was 7.8 pKd (M).
In the case of “[D^3,G^40,K^41.C16 diacid]exendin-4 (peptide)”, in assay [1], the cAMP (1% FBS), HEK293-SNAP-GLP-1R cells, Emax turned out to be 97 % max and the cAMP (1% FBS), HEK293-SNAP-GLP-1R cells, pEC50 is 10.4 pEC50 (M). Also, in the assay with mouse GLP-1R (mouse), the cAMP, MIN6B1 cells (with IBMX), Emax was 97 % max and the cAMP, MIN6B1 cells (with IBMX), pEC50 was 10.8 pEC50 (M). In the assay with rat GLP-1R (rat), the cAMP, INS-1 832/3 cells (with IBMX), Emax turned out to be 101 % max and the cAMP, INS-1 832/3 cells (with IBMX), pEC50 is 8.7 pEC50 (M). For the same substance, the pKd in assay [2] was 8.9 pKd (M). In addition, in the assay with human plasma proteins, the unbound fraction (fu) was 2.2%. For the same substance, the unbound fraction (fu) in the assay with mouse plasma proteins worked out at 2.1%.
As to “[F^1,G^40,K^41.C16 diacid]exendin-4 (peptide)”, in assay [1], the cAMP (1% FBS), HEK293-SNAP-GLP-1R cells, Emax was 49 % max and the cAMP (1% FBS), HEK293-SNAP-GLP-1R cells, pEC50 was 8.2 pEC50 (M). In the assay with mouse GLP-1R (mouse), the cAMP, MIN6B1 cells (with IBMX), Emax was 98 % max and the cAMP, MIN6B1 cells (with IBMX), pEC50 was 7.9 pEC50 (M). Further, in the assay with rat GLP-1R (rat), the cAMP, INS-1 832/3 cells (with IBMX), Emax was 41 % max and the cAMP, INS-1 832/3 cells (with IBMX), pEC50 is 7.5 pEC50 (M). Also, in assay [2], the pKd is 8.3 pKd (M). Further, in the assay with human plasma proteins, the unbound fraction (fu) turned out to be 2.1%. Also, the unbound fraction (fu) with mouse plasma proteins came out at 2.4%.
For “[G^40,K^41.C16 diacid]exendin-4 (from UniProt P26349 48-87) (peptide)”, the unbound fraction (fu) was 2.3% with human plasma proteins and 2.6% in the assay with mouse plasma proteins.
